Experimental data as given in article PMC10943538 (Plant Communications, 2023).

T1: MBP-MYB75 (Arabidopsis thaliana, UniProt Q9FE25 1-248)
T1 sequence (looked up): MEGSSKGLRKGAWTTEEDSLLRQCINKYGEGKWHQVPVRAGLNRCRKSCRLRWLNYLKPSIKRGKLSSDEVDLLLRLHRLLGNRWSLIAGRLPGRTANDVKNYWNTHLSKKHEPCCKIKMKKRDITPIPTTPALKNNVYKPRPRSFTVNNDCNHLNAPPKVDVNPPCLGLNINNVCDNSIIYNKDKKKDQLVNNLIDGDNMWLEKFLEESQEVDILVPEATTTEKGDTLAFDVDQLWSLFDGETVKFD

T2: TT8-MBP (Arabidopsis thaliana, UniProt Q9FT81 1-518)
T2 sequence (looked up): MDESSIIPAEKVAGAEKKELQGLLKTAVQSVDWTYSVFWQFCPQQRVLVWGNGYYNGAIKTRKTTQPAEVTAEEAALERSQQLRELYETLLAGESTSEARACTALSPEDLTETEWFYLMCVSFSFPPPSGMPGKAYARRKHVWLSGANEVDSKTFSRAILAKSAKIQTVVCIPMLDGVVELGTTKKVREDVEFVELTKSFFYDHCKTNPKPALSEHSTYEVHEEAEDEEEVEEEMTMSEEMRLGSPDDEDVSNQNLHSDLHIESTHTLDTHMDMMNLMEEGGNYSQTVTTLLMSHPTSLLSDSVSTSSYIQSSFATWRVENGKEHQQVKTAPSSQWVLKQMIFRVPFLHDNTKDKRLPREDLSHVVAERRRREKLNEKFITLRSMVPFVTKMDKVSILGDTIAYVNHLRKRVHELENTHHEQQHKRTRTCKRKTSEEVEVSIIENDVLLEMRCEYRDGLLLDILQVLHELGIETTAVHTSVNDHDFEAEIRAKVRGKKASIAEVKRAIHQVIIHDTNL

T3: EGL3-MBP (Arabidopsis thaliana, UniProt Q9CAD0 1-596)
T3 sequence (looked up): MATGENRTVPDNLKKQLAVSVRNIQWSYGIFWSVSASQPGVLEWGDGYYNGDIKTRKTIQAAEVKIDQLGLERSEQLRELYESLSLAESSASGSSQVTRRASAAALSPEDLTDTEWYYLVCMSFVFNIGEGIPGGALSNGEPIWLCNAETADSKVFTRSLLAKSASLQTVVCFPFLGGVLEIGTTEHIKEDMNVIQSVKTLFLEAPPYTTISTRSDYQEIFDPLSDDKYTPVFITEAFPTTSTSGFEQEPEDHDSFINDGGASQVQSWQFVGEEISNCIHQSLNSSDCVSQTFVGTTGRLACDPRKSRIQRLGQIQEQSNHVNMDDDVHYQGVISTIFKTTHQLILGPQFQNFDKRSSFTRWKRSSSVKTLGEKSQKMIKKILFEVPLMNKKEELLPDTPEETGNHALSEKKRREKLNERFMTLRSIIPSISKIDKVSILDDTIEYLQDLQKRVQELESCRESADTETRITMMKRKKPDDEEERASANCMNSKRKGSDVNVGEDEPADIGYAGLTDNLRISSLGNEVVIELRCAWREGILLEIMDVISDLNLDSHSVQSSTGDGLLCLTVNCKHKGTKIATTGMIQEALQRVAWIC

B1: His-MYB75 (natural protein, Arabidopsis thaliana, UniProt Q9FE25 1-248, looked up)
chain: MEGSSKGLRKGAWTTEEDSLLRQCINKYGEGKWHQVPVRAGLNRCRKSCRLRWLNYLKPSIKRGKLSSDEVDLLLRLHRLLGNRWSLIAGRLPGRTANDVKNYWNTHLSKKHEPCCKIKMKKRDITPIPTTPALKNNVYKPRPRSFTVNNDCNHLNAPPKVDVNPPCLGLNINNVCDNSIIYNKDKKKDQLVNNLIDGDNMWLEKFLEESQEVDILVPEATTTEKGDTLAFDVDQLWSLFDGETVKFD

What was measured:
Experiment in all cases: pull-down
[1] = molecular target: T1, MBP-MYB75
[2] = molecular target: B1
[3] = molecular target: T2, TT8-MBP
[4] = molecular target: T3, EGL3-MBP

| binding result [1] | binding result [2] | binding result [3] | binding result [4] | Binder |
| --- | --- | --- | --- | --- |
| binds | binds |  |  | GST-MYB30^N (domain or fragment) not shown |
|  |  | binds | binds | B1 |
